Measurements from the MegaScale stability set (Tsuboyama et al. 2023).

B1: EHEE_rd3_0053 (parent)
chain: TYTFKVDNKDQAKKAAKWAKKLGLSFQIEKHGDTFKITVQ
B2: HHH_rd1_0493 (parent)
chain: RDEDEKEKIKEALKRGNEDKAKEIAKRANVSPEEYERLRKEAE

Variants of: B1
Assay: folding stability dG (cDNA display proteolysis); higher = more stable
Conditions: PBS, room temperature

Folding stability dG [kcal/mol] of substitutions, site by site:
Q11: Y 1.74, N 1.72, H 2.1, I 1.97, C 3.05, V 1.95, F 1.85, D 2.39, R 1.99, W 1.79, A 2.65, K 2.38, S 2.18, L 2.33, M 2.36, T 1.93, P 0.025, E 2.3, G 1.97
D7: G 2.45, T 2.47, E 2.37, P 2.27, M 2.51, R 2.68, S 2.66, I 2.27, A 2.71, H 2.58, K 2.77, V 2.33, Q 2.61, C 3.29, Y 2.78, W 2.66, F 2.83, N 2.62, L 2.4
N8: P 0.466, M 1.15, W 1.24, V 0.955, H 1.73, I 1.16, K 1.62, Y 1.27, R 1.86, Q 1.47, F 1.46, G 2.35, D 2.02, L 1.43, A 1.27, S 2.56, T 2.78, E 1.16
K5: S 2.96, H 3.07, F 3.77, I 3.47, V 3.31, R 2.22, L 3.2, M 3.24, E 2.93, A 2.54, D 2.34, P 1.7, W 3.77, N 2.79, Y 3.89, T 3.28, G 1.89, Q 2.9
T1: H 2.3, D 1.93, A 2.38, E 2.25, K 2.46, R 2.45, F 2.42, Q 2.34, N 2.17, G 2.42, C 3.57, L 2.21, Y 2.64, I 2.51, S 2.62, P 2.15, M 2.37, W 2.67, V 2.43
V6: Y 1.92, H 0.343, D -0.058, Q 0.045, L 2.32, F 2.32, S 1.03, E 0.257, M 1.68, N -0.311, T 2.1, G 0.437, A 1.62, W 1.28, I 1.89, K 0.315, R 0.551, P 0.243
A12: I 1.97, K 1.26, W 1.29, V 2.33, E 0.263, R 1.29, P -0.057, Y 1.31, M 2.25, L 2.42, Q 0.843, G 1.05, S 1.17, N -0.078, F 1.36, T 1.06, D -0.537, H 0.275, C 3.23
T3: Q 1.95, H 2.1, D 1.34, S 2.34, P 0.945, K 1.46, F 2.2, N 1.43, M 1.99, E 2.15, V 2.49, Y 2.27, I 2.43, W 2.67, R 1.6, L 1.39, C 2.98, A 1.79, G 0.986
Y2: V 2.01, P 0.617, N 0.999, Q 1.17, H 1.95, W 2.7, M 2.08, K 1.59, F 2.57, S 1.18, T 1.42, I 2.27, R 1.97, G 0.704, D 0.593, C 3.58, E 0.685, L 2.25, A 1.23
K13: A 2.31, C 3.24, G 1.72, E 2.32, F 2.23, D 2.46
K9: P 2.31, A 2.62, H 2.25, V 2.57, Q 2.26, L 2.9, F 2.74, N 1.9, E 2.65, S 2.14, W 3.2, Y 2.86, M 2.74, T 2.02, G 1.9, D 1.91, R 2.46, I 2.87
F4: I 1.79, D -0.075, R 0.333, L 1.38, H 0.581, A 0.455, W 2.38, K 0.404, E 0.316, N -0.163, Y 1.69, Q 0.162, T 0.349, C 3.42, S 0.126, M 1.23, G 0.271, V 1.2, P 0.467
D10: T 2.73, N 2.6, E 2.73, R 2.8, V 2.52, Q 2.68, C 2.72, S 2.71, Y 3.04, I 2.62, G 2.44, A 2.83, K 2.74, P 1.89, M 2.67, L 2.68, H 2.7, F 2.75, W 2.98

Variants of: B2
Assay: as above
Conditions: PBS, room temperature

Folding stability dG [kcal/mol], by site and new letter:
K40: Q 3.26, Y 2.89, F 2.8, S 2.9, V 3.01, P 0.577, A 3.15, T 2.8, E 2.98, N 2.72, D 2.63, L 3.21, H 3.01, R 3.33, G 2.62, W 3.23, I 3.16, M 3.2
A42: D 0.965, T 2.31, M 2.51, W 2.2, E 1.25, L 2.54, S 2.37, G 1.62, N 1.81, R 1.21, P 0.795, H 1.55, F 2.29, Y 2.14, V 3.33, Q 1.88, I 2.87, K 1.03
L38: N 0.332, V 1.23, P -0.019, Y 1.85, K 0.318, T 0.593, W 1.78, Q 0.492, S 0.378, R 0.571, M 2.26
R39: P 0.097, A 2.37, N 1.18, T 1.89, C 1.52, E 1.77, G 1.16, F 1.95, V 2.65, L 2.17, S 2.1, Q 2.2, Y 1.87, W 2.02, I 2.09, H 1.8, K 2.99, D 0.392, M 2.1
E41: W 2.38, N 1.77, P 0.8, I 2.38, Y 1.63, R 2.07, F 1.84, K 1.99, D 2.35, Q 2.77, S 2.05, V 2.15, T 1.97, C 1.88, G 1.59, M 2.58, A 2.55, L 2.63, H 1.7
E43: P 1.3, C 2.61, D 2.56, M 3.31, Y 3.29, S 2.62, Q 3.02, L 3.33, N 2.59, V 2.79, R 2.72, H 2.77, T 2.65, K 2.64, I 3.07, F 3.37, W 3.31, A 2.94, G 2.47
